Experimental data: article PMC3724679, “Biochemical Characterization of a Polysialyltransferase from Mannheimia haemolytica A2 and Comparison to Other Bacterial Polysialyltransferases” (PLoS ONE, 2013)

System: CC(=O)N[C@H]1[C@H]([C@H](O)[C@H](O)CO)O[C@](OP(=O)(O)OC[C@H]2O[C@@H](n3ccc(N)nc3=O)[C@H](O)[C@@H]2O)(C(=O)O)C[C@@H]1O
Test: purified protein
Settings: 0.5 mM GD3-FCHASE acceptor, 50 mM HEPES pH 7.5, 10 mM MgCl2, 30°C, CMP-Neu5Ac varied 0.25-20 mM

Substance “PSTMh (MalE-Δ20PSTMh) (Mannheimia haemolytica)” has a Km of 1100 ± 50 µM and a Vmax of 1520 µmol/min/mg.
